Numbering of substitutions follows the chain as printed. Numbers in names are those of the source.

Data set [1] concerns the molecule itself. The data set can be described thus: light scattering; 2 uM GalR diluted from a stock in 1 M NaCl into 50 mM TrisCl pH 8 with 78-1000 mM NaCl (or 25-700 mM Na2SO4 with 78 mM NaCl); 365 nm, stirring, room temperature; dimers to aggregates at low ionic strength.
Data set [2] concerns the molecule itself. The data set can be described thus: dynamic light scattering; 6.4 uM GalR^T322R, 20 °C, 250 mM NaCl; monomers to dimer.
Data set [3] deals with the molecule itself. The data set can be described thus: negative staining transmission electron microscopy; 3.8 uM GalR, 50 mM Tris:Cl pH 8, 250 mM NaCl unless otherwise stated (GalR^N48I: 150 mM NaCl); flash-frozen, stained with 1% phosphotungstic acid; dimers to ordered aggregates.

B1: Gal repressor GalR, wild type (GalR^WT), hexahistidine-tagged (natural protein, Escherichia coli, UniProt P03024 1-343, looked up)
chain: MATIKDVARLAGVSVATVSRVINNSPKASEASRLAVHSAMESLSYHPNANARALAQQTTETVGLVVGDVSDPFFGAMVKAVEQVAYHTGNFLLIGNGYHNEQKERQAIEQLIRHRCAALVVHAKMIPDADLASLMKQMPGMVLINRILPGFENRCIALDDRYGAWLATRHLIQQGHTRIGYLCSNHSISDAEDRLQGYYDALAESGIAANDRLVTFGEPDESGGEQAMTELLGRGRNFTAVACYNDSMAAGAMGVLNDNGIDVPGEISLIGFDDVLVSRYVRPRLTTVRYPIVTMATQAAELALALADNRPLPEITNVFSPTLVRRHSVSTPSLEASHHATSD
notes: GalR, the Gal repressor of Escherichia coli; 37 kDa subunit
On to B1, for which, in data set [1], the binding result was “binds”.

B2: GalR^T322R, hexahistidine-tagged (natural protein, Escherichia coli, UniProt P03024 1-343, looked up)
chain: B1 chain with T322R
notes: GalR of Escherichia coli with T322R; Tetramer formation is strongly impaired in this mutant (cited); also called non-tetramerizing GalR mutant; source: expressed from vector plasmid pSEM1026 under an L-arabinose inducible promoter, purified
Turning to B2, in data set [2], the binding result is on record as “binds”.

B3: GalR^N48I, hexahistidine-tagged (natural protein, Escherichia coli, UniProt P03024 1-343, looked up)
chain: B1 chain with N48I
notes: GalR of Escherichia coli with N48I; source: expressed from vector plasmid pSEM1026 under an L-arabinose inducible promoter, purified
Consider B3, for which the binding result in data set [3] is on record as “binds”.

The values above are taken from PMC4899725, “The transcriptional regulator GalR self-assembles to form highly regular tubular structures” (Scientific Reports, 2016).
